Experimental data as given in PMC4520625 (Biochemistry, 2015).
Ends that are not written are not given here. * marks the point of attachment. Galβ1,3GalNAcα = CC(=O)N[C@@H]1[C@@H](O[C@@H]2O[C@H](CO)[C@H](O)[C@H](O)[C@H]2O)[C@@H](O)[C@@H](CO)O[C@@H]1*

B1: asialofetuin (ASF), unlabeled (natural protein, UniProt P12763 19-359, looked up)
chain: IPLDPVAGYKEPACDDPDTEQAALAAVDYINKHLPRGYKHTLNQIDSVKVWPRRPTGEVYDIEIDTLETTCHVLDPTPLANCSVRQQTQHAVEGDCDIHVLKQDGQFSVLFTKCDSSPDSAEDVRKLCPDCPLLAPLNDSRVVHAVEVALATFNAESNGSYLQLVEISRAQFVPLPVSVSVEFAVAATDCIAKEVVDPTKCNLLAEKQYGFCKGSVIQKALGGEDVRVTCTLFQTQPVIPQPQPDGAEAEAPSAVPDAAGPTPSAAGPPVASVVVGPSVVAVPLPLHRAHYDLRHTFSGVASVESSSGEAFHVGKTPIVGQPSIPGGPVRLCPGRIRYFKI
modifications: three complex-type N-glycans (asialo)

What was measured:
[1] = target: full-length human galectin-3 (human, UniProt P17931 1-250); experiment: ITC
His-tagged galectin-3 = His-tagged galectin-3 (human, UniProt P17931 1-250); experiment: AlphaScreen or HTRF
Chain of His-tagged galectin-3 (P17931 whole entry): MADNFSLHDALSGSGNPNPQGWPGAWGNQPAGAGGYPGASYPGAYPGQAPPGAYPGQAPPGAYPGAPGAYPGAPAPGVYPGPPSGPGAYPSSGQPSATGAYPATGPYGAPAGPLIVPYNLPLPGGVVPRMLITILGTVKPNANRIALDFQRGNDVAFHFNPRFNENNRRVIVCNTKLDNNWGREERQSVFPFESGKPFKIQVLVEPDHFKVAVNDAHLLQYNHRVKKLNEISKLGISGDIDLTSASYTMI

Chain of full-length human galectin-3 (P17931 whole entry): as above

Binder	Ka [1]	dH [1]	stoichiometry N [1]	IC50 (His-tagged galectin-3)
HGVT(Galβ1,3GalNAcα)SAPDTRPAPGS [MUC1(1-15)-Thr4 truncated glycopeptide carrying the TF antigen]	7600 M⁻¹	-1.79 kcal/mol	0.87	–
B1	–	–	–	2.3 nM
HGVT(Galβ1,3GalNAcα)SAPD [MUC1(1-8)-Thr4 truncated glycopeptide carrying the TF antigen]	2900 M⁻¹	-1.32 kcal/mol	0.97	–
